In the data set the target is OsMADS57 (Oryza sativa) (UniProt Q6Z6W2). The data set can be described thus: SPR. The following applies: SPR (Biacore 3000, SA chip): 10 mM Hepes pH 7.9, 50 mM KCl, 1 mM EDTA, 0.5 mM DTT, 5 mM MgCl2, 10% glycerol, 0.005% P20, 25 or 4 C, protein 0.15-4.80 uM, EMSA: …. A general note: Mobility shift assays separate free from complexed probe on a gel.

The values below come from publication PMC5873253.

In general, Kd refers to the free concentration of one partner at which half of the binding sites on the other are occupied at equilibrium, for simple one-to-one binding.

Sequence of OsMADS57 (Oryza sativa) (Q6Z6W2 whole entry): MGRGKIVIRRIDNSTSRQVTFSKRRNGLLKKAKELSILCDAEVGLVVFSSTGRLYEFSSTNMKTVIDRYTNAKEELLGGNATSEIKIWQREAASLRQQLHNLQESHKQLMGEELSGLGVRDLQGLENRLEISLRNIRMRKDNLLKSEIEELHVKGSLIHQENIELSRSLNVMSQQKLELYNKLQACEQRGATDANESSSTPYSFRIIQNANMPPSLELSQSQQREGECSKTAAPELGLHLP

“TTAACTTTAAAAAGTTAGTTAACTTTAAAAAGTTAGTTAACTTTAAAAAGTTAG (double strand) [WRKY94S2]” registered a Kd of 700 nM. For the setting “25 C”, this sequence had a Kd of 1200 nM.
